Experimental findings from patent publication US20240101668A1 (WUGEN, published 2024) are described below.

To fix the notation:
B1: Polypeptide No. 50 (scFv, V domains shown)
VH: QVQLVQSGAEVKKPGASVKVSCKASGYTFTDYYMHWVRQAPGQGLEWMGIINPSDGSTTYAQSFQGRVTMTRDTSTSTVYMELSSLRSEDTAVYYCARDELPDSSGWYGYFQHWGQGTLVTVSS
VL: DIQMTQSPSSLSASVGDRVTITCRASQSISSWLAWYQQKPGKAPKLLIYAASSLQSGVPSRFSGSGSGTDFTLTISSLQPEDFATYYCQQSYDIPLTFGGGTKVEIKR
notes: scFv
B2: Polypeptide No. 56 (scFv, V domains shown)
VH: QVQLVQSGAEVKKPGASVKVSCKASGYTFTSYDINWVRQAPGQGLEWMGWMNPNSGNTGYAQKFQGRVTMTRDTSTSTVYMELSSLRSEDTAVYYCARVSATGTYGLDYWGQGTLVTVSS
VL: B1 VL with Q27H, A50D, S53N, Q55E, S56T, S91A, Y92D, D93S, I94F
notes: scFv
B3: Polypeptide No. 53 (scFv, V domains shown)
VH: QVQLVQSGAEVKKPGASVKVSCKASGGTFSSYAISWVRQAPGQGLEWMGWINPDSGDASYARKFQGRVTMTRDTSTSTVYMELSSLRSEDTAVYYCATFGEEAFDIWGQGTMVTVSS
VL: B1 VL with S28N, S30G, A50G, S53I, S91A, Y92N, D93S, I94F, V104L
notes: scFv
B4: Polypeptide No. 87 (scFv, V domains shown)
VH: QVQLVQSGAEVKKPGASVKVSCKASGYSFTNYYIHWVRQAPGQGLEWMGWMNPYTGQTGYAQKFQGRVTMTRDTSTSTVYMELSSLRSEDTAVYYCTTDEETMDFHLWGRGTLVTVSS
VL: DIQMTQSPSSLSASVGDRVTITCZASQSISSYLNWYQQKPGKAPKLLIYDASNLETGVPSRFSGSGSGTDFTLTISSLQPEDFATYYCQQANTFPITFGQGTRLEIKR
notes: scFv
B5: Polypeptide No. 54 (scFv, V domains shown)
VH: QVQLVQSGAEVKKPGASVKVSCKASGGTFSSYAISWVRQAPGQGLEWMGWIDPKNGDTNYAQKFQGRVTMTRDTSTSTVYMELSSLRSEDTAVYYCATEGSHHPYYYYGMDVWGQGTTVTVSS
VL: DIQMTQSPSSLSASVGDRVTITCRASQGIGNWLAWYQQKPGKAPKLLIYEASTLQSGVPSRFSGSGSGTDFTLTISSLQPEDFATYYCHQYNAYPWTFGQGTKVEIKR
notes: scFv
B6: Polypeptide No. 51 (scFv, V domains shown)
VH: QVQLVQSGAEVKKPGSSVKVSCKASGGTFSSYAISWVRQAPGQGLEWMGEIIPFFGTANYAQKFQGRVTITADESTSTAYMELSSLRSEDTAVYYCARAEYGGDLDYWGQGTLVTVSS
VL: DIQMTQSPSSLSASVGDRVTITCQASQDISNLLNWYQQKPGKAPKLLIYAASTLQSGVPSRFSGSGSGTDFTLTISSLQPEDFATYYCQQSYNTPWTFGPGTKVDIKR
notes: scFv
B7: Polypeptide No. 55 (scFv, V domains shown)
VH: QVQLVQSGAEVKKPGASVKVSCKASGYTFTGYHMHWVRQAPGQGLEWMGWINPNTGGTNYAQKFQGRVTMTRDTSTSTVYMELSSLRSEDTAVYYCARPNTAMVPPYYYYYGMDVWGQGTLVTVSS
VL: B6 VL with L32Y, T53S, S91Y, Y92N, N93S, T94Y, W96L, P100Q, V104L, D105E
notes: scFv
B8: Polypeptide No. 61 (scFv, V domains shown)
VH: QVQLVQSGAEVKKPGASVKVSCKASGYTFTNYYMHWVRQAPGQGLEWMGIINPSGGSTSYAQKFQGRVTMTRDTSTSTVYMELSSLRSEDTAVYYCARAEWDILTGYYIDYWGQGTLVTVSS
VL: B6 VL with L32Y, A50G, T53S, S91H, Y92N, N93S, T94Y, P100Q, D105E
notes: scFv
B9: Polypeptide No. 52 (scFv, V domains shown)
VH: QVQLVQSGAEVKKPGASVKVSCKASGDTFTRHYVHWVRQAPGQGLEWMGIINPRGGTHYAQKFQGRVTMTRDTSTSTVYMELSSLRSEDTAVYYCARRDCSGGSCYSDLDYWGQGTLVTVSS
VL: DIQMTQSPSSLSASVGDRVTITCQASQDIHNYLNWYQQKPGKAPKLLIYQASSLESGVPSRFSGSGSGTDFTLTISSLQPEDFATYYCQQANSFPLTFGGGTKLEIKR
notes: scFv
B10: Polypeptide No. 57 (scFv, V domains shown)
VH: QVQLVQSGAEVKKPGASVKVSCKASGYTFNNYGITWVRQAPGQGLEWMGIINPITGVTTYAQNFQGRVTMTRDTSTSTVYMELSSLRSEDTAVYYCASGEQQLVLFDYWGQGTLVTVSS
VL: B9 VL with H30N, N31D, Q50G, S53N, E55Q, Q89L, A91H, F94Y, G100Q
notes: scFv
B11: Polypeptide No. 287 (scFv, V domains shown)
VH: QVQLVQSGAEVKKPGASVKVSCKASGYTFTRHYVHWVRQAPGQGLEWVGIINPSSGSASYAQKFQGRVTMTRDTSTSTVYMELSSLRSEDTAVYYCARDRLRSRFDYWGQGTLVTVSS
VL: B1 VL with W32S, D93T, L96P, G100Q, V104L
notes: scFv
B12: Polypeptide No. 284 (scFv, V domains shown)
VH: QVQLVQSGAEVKKPGASVKVSCKASGYTFTSYYMHWVRQAPGQGLEWMGVINPSGGSTTYAQKFQGRVTMTRDTSTSTVYMELSSLRSEDTAVYYCARVPGVSPGDYGMDVWGQGTTVTVSS
VL: B1 VL with Q27H, S28N, S31T, D93S, I94T, L96P, G100Q, K103R, V104L
notes: scFv
B13: Polypeptide No. 293 (scFv, V domains shown)
VH: QVQLVQSGAEVKKPGSSVKVSCKASGYMFTTPYIHWVRQAPGQGLEWMGVINPISGTTTYAQKFQGRVTITADESTSTAYMELSSLRSEDTAVYYCANDRHYDFWSGYYKEEWEYFQHWGQGTLVTVSS
VL: not shown
notes: scFv
B14: Polypeptide No. 292 (scFv, V domains shown)
VH: QVQLVQSGAEVKKPGASVKVSCKASGYTFTSYGISWVRQAPGQGLEWMGWINPNSGGTNYAQKFQGRVTMTRDTSTSTVYMELSSLRSEDTAVYYCARQGGLRDFDYWGQGTLVTVSS
VL: DIQMTQSPSSLSASVGDRVTITCRASQSISTYVNWYQQKPGKAPKLLIYDTSSLQSGVPSRFSGSGSGTDFTLTISSLQPEDFATYYCQQSFITPPTFGQGTKLEIKR
notes: scFv
B15: Polypeptide No. 288 (scFv, V domains shown)
VH: QVQLVQSGAEVKKPGASVKVSCKASGYTFTTYDINWVRQAPGQGLEWMGWMNPSSGNSGFAQQFQGRVTMTRDTSTSTVYMELSSLRSEDTAVYYCAREDYYDSSGYYNWGQGTLVTVSS
VL: B6 VL with Q24R, D28G, L32N, A50K, Q55E, N93S, W96I, P100Q, D105E
notes: scFv
B16: Polypeptide No. 283 (scFv, V domains shown)
VH: QVQLVQSGAEVKKPGASVKVSCKASGYTFTSYYMDWVRQAPGQGLEWMGRINPSSGSTTYVQKFQGRVTMTRDTSTSTVYMELSSLRSEDTAVYYCARTPSGSYSDFDYWGQGTLVTVSS
VL: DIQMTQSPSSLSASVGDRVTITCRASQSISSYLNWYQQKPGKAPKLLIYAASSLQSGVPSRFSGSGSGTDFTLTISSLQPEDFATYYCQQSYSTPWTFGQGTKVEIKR
notes: scFv
B17: Polypeptide No. 280 (scFv, V domains shown)
VH: B12 VH with S31R, V50I, T59S, V99G, P100E, G101T, V102R, P104Y, G105A, D106P
VL: B9 VL with H30S, S53N, L54K, E55D, S56T, A91S, N92Y, F94T, L96P, G100Q
notes: scFv
B18: Polypeptide No. 294 (scFv, V domains shown)
VH: QVQLVQSGAEVKKPGASVKVSCKASGYTFTSNNMHWVRQAPGQGLEWMGWINLNSGGTNYAQKFQGRVTMTRDTSTSTVYMELSSLRSEDTAVYYCAKAIDYYYMDVWGKGTTVTVSS
VL: B9 VL with Q24R, D28G, H30R, Y32D, N34G, S56N, N92Y, F94L, L96W, G100Q
notes: scFv

Positions count from the first letter of the chain named. A value given as a limit tells only on which side of the number the result lay.
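Throughout, for result: Bio-layer interferometry with scFvs captured on biosensors via anti-V5 antibody, exposed 2 min to CLL-1 K244 or Q244 protein, 5 min dissociation, scored as binding, no binding or ambiguous.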

One experiment deals with T1, huCLL1-K244-Avi-Tev-His (human, UniProt Q5QGZ9 65-265).
T1 construct: extracellular domain
T1 sequence (looked up): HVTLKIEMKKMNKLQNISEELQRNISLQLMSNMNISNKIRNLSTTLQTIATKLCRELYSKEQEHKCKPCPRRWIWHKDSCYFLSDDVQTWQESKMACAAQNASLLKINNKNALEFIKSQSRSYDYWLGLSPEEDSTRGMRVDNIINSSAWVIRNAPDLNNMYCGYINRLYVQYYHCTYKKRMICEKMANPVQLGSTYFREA
Description: BLI.
Description: (§1) Discovered scFvs were analyzed for binding to huCD33-R69-His or huCD33-G69-Fc recombinant proteins (for anti-CD33 scFvs; for CLL-1 scFvs, huCLL1-K244-Avi-Tev-His or huCLL1-Q244-Avi-Tev-His were used; for FLT3, huFLT3-T227-His or huFLT3-M227-Fc were used) using BLI on a ForteBio Octet HTX instrument. Streptavidin-coated biosensors were loaded with biotinylated anti-V5 tag monoclonal antibody for 5 min and were then quenched and blocked with 20 μM amine-PEG2-Biotin for 5 min. scFvs were captured on biosensors from scFv clone periplasmic extracts. huCD33 (or huCLL-1, or huFLT3) proteins were then associated with the captured scFvs for 2 minutes, followed by dissociation with buffer (1×HBST [10 mM HEPES pH 7.4, 150 mM NaCl, 0.05% Tween-20], 1 g/L BSA) for 5 minutes. […] Data was fitted with 1:1 Langmuir equation and off-rate values were reported.
(§2) Analogous methods were used to assess selectivity of binding of polypeptides to CLL-1 K244 or CLL-1 Q244.
For B1, the binding result is “binds”.

In the case of B2, the binding result is “binds”.

With B3, the binding result is “binds”.

Take B4: the binding result is on record as “no binding”.

Consider B5, for which the binding result is “binds”.

As to B6, the binding result is “binds”.

Consider B7, for which the binding result is “binds”.

Consider B8, for which the binding result was “binds”.

On to B9, for which the binding result was “binds”.

Regarding B10, the binding result is “binds”.

In the next experiment the target is T2, huCLL1-Q244-Avi-Tev-His (human, UniProt Q5QGZ9 65-265).
T2 construct: extracellular domain; also called CLL-1 K244Q
T2 sequence (looked up): T1 sequence (looked up) with K180Q
Put plainly: BLI. Background: BLI is a label-free optical method that tracks binding on a fibre tip over time.
Description: as §1, §2
Consider B1, for which the binding result is “no binding”.

On to B2, for which the binding result was “no binding”.

For the molecule B3, the binding result is given as “no binding”.

As to B5, the binding result is on record as “no binding”.

As for B6, the binding result is “no binding”.

For the molecule B7, the binding result is reported as “no binding”.

For B9, the binding result was “no binding”.

B10: the binding result is “no binding”.

The target of another experiment is T3, huFLT3-T227 stably expressed on Ramos cells (human, UniProt P36888 27-993).
T3 construct: whole, on cells; also called FLT3 WT
Put plainly: FACS on cells.
Description: (§3) For FLT3, Ramos cells were engineered to stably express either the huFLT3-T227 or huFLT3-M227 variant at >200,000 receptors per cell. Parental, huFLT3-T227, and huFLT3-M227 Ramos cell lines were stained with differing levels of CellTrace Violet Cell Proliferation Kit (ThermoFisher, cat. #C34557) to barcode each cell line. Barcoded Ramos cell lines were fixed with paraformaldehyde and incubated with myc-labeled scFv periplasmic extracts and a secondary anti-myc PE-conjugated monoclonal antibody. Appropriate positive and negative controls were used. Stained cells were analyzed by flow cytometry (CytoFLEX, Beckman Coulter, Inc.) and binding was assessed by change in PE mean fluorescence intensity (MFI) of the barcoded cell populations.
Take B11: the “FACS geometric mean fold change over Jurkat parental” value (“FACS geometric mean fold change” below) lay in the range of 10 to 30 fold.

On to B12, for which the “FACS geometric mean fold change” value is more than 30 fold.

Turning to B13, the “FACS geometric mean fold change” value lay within 2 to 10 fold.

On to B14, for which the “FACS geometric mean fold change” value was 2 to 10 fold.

With B15, the “FACS geometric mean fold change” value fell in the range of 2 to 10 fold.

B16: the “FACS geometric mean fold change” value was more than 30 fold.

On to B17, for which the “FACS geometric mean fold change” value is more than 30 fold.

As for B18, the “FACS geometric mean fold change” value is 10 to 30 fold.

For the next experiment, the target named is T4, huFLT3-M227 stably expressed on Ramos cells (human, UniProt P36888 27-993).
T4 construct: whole, on cells; also called FLT3 Mutant
Put plainly: FACS on cells.
Description: as §3
Consider B11, for which the “FACS geometric mean fold change” value was in the range of 2 to 10 fold.

Regarding B12, the “FACS geometric mean fold change” value is more than 30 fold.

With B13, the “FACS geometric mean fold change” value lay within 2 to 10 fold.

As for B14, the “FACS geometric mean fold change” value lay within 2 to 10 fold.

Consider B15, for which the “FACS geometric mean fold change” value is 10 to 30 fold.

Turning to B16, the “FACS geometric mean fold change” value was more than 30 fold.

For the molecule B17, the “FACS geometric mean fold change” value was more than 30 fold.

For the molecule B18, the “FACS geometric mean fold change” value was 10 to 30 fold.
